From patent US6462177B1, “Mammalian blood loss-induced gene, kd312” (Amgen Inc., priority 1998, dated 2002)
Entries after “also recorded” stand apart in the source; their conditions may differ.

Assays:
293 cells = assay: Establishment of 293 cell lines constitutively expressing genes from pCEP4; format: cell-based, human; settings: no stable cell line could be established
Description: (§1) Transfections of 293 cells with the plasmid pCEP4 or its derivatives were performed by using LipofectAMINE Reagent and the protocol supplied with it by Gibco BRL. Transfected cells were grown in Gibco BRL D-MEM high-glucose medium that lacked sodium pyruvate and was supplemented with 10% FBS and 300 μg/ml hygromycin. Fluorescence-activated cell sorting (FACS) for apoptosis assays was performed according to Polverino and Patterson, J. Biol. Chem. 272, No. 11: 7013-7021 (1997).
(§2) Involvement of kd312 in apoptosis was tested in the human embryonal kidney cell line 293 following expression of this gene from the episomal expression vector pCEP4. Derivatives of 293 cells constitutively expressing human kd312, bcl-2, R-ras, and murine H-ras genes from pCEP4 were established. Expression of each gene was confirmed by Western blotting experiments (data not shown). […] It has been shown that R-ras promotes apoptosis following expression in 32, D3, FL5.12, and NIH3T3 cells. […] The levels of inhibition following expression of the ras genes, particularly R-ras, were unmistakably lower than those resulting from the expression of kd312.

[1] = test system: human embryonal kidney cell line 293; assay: FACS analysis of geranylgeraniol-induced apoptosis in 293 cells transfected with various genes; format: cell-based; settings: 293 cells constitutively expressing the gene from pCEP4; 10 μM geranylgeraniol; propidium iodide FACS
Description: FIG. 4 depicts inhibition of apoptosis by human kd312 as compared to other proteins (as indicated). Shown graphs are the results from FACS analysis of apoptosis induced by geranylgeraniol in 293 cells transfected with various genes. Cells were treated with 10 μM geranylgeraniol for various times as indicated. Subsequently, the cells were washed and stained with 50 μg/ml propidium iodide in 3.8 mM sodium citrate pH 7.0 and analyzed using a FACScan flow cytometer. The extent of apoptosis was determined by measuring the proportion of cells displaying hypo-diploid DNA content. The data represent the average of 2 independent experiments.
as §1, §2

H-Ras = target: T1, H-Ras (Homo sapiens, UniProt P01112); assay: Yeast two-hybrid interaction test; format: binding; settings: yeast two-hybrid system
T1 construct: expressed in transfected cells
Description: (§3) To define the way that kd312 exerts its function we have tested its interaction with human Raf, H-Ras, and bcl-2 using a yeast two-hybrid system. […] Work is in progress to search for kd312 interacting proteins using the same yeast system.

bcl-2 = target: T2, bcl-2 (Homo sapiens, UniProt P10415); assay: Yeast two-hybrid interaction test; format: binding; settings: yeast two-hybrid system
T2 construct: expressed in transfected cells
Description: as §3

human Raf = target: T3, human Raf (Homo sapiens, UniProt P04049); assay: Yeast two-hybrid interaction test; format: binding; settings: yeast two-hybrid system
T3 construct: expressed in transfected cells
Description: as §3

T2 sequence (P10415 whole entry): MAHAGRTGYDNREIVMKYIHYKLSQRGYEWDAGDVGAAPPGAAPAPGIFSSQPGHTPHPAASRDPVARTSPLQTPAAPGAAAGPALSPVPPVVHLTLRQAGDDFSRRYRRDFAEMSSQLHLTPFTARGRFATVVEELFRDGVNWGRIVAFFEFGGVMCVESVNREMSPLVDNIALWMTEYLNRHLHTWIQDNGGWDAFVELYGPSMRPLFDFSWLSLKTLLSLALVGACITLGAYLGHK

Molecule	outcome of gene expression in 293 cells (293 cells)	effect on geranylgeraniol-induced apoptosis (proportion of cells with hypo-diploid DNA content) [1]	interaction with H-Ras (H-Ras)	interaction with bcl-2 (bcl-2)	interaction with human Raf (human Raf)
bax: murine bax gene product; expression in 293 cells led to cell death	invariably led to cell death				
bcl-2: bcl-2 gene product, a potent apoptosis inhibitor, expressed from pCEP4 in 293 cells [reference compound]		protected 293 cells from geranylgeraniol-induced apoptosis			
kd312: human kd312 protein (281 amino acids), blood loss-induced, distantly related to the Ras family, expressed from cDNA (protein) MKLAAMIKKMCPSDSELSIPAKNCYRMVILGSSKVGKTAIVSRFLTGRFEDAYTPTIEDFHRKFYSIRGEVYQLDILDTSGNHPFPAMRRLSILTGDVFILVFSLDNRDSFEEVQRLRQQILDTKSCLKNKTKENVDVPLVICGNKGDRDFYREVDQREIEQLVGDDPQRCAYFEISAKKNSSLDQMFRALFAMAKLPSEMSPDLHRKVSVQYCDVLHKKALRNKKLLRAGSGGGGGDPGDAFGIVAPFARRPSVHSDLMYIREKASAGSQAKDKERCVIS		protects the cells from apoptosis; also recorded: protected 293 cells from geranylgeraniol-induced apoptosis; also recorded: protects 293 cells from chemical-induced apoptosis	No interaction	No interaction	No interaction
R-ras: human R-ras gene product of the Ras family, expressed from pCEP4 in 293 cells (protein, UniProt P10301 1-215, looked up) Ras-related protein R-Ras: MSSGAASGTGRGRPRGGGPGPGDPPPSETHKLVVVGGGGVGKSALTIQFIQSYFVSDYDPTIEDSYTKICSVDGIPARLDILDTAGQEEFGAMREQYMRAGHGFLLVFAINDRQSFNEVGKLFTQILRVKDRDDFPVVLVGNKADLESQRQVPRSEASAFGASHHVAYFEASAKLRLNVDEAFEQLVRAVRKYQEQELPPSPPSAPRKKGGGCPC		inhibited apoptosis			
